Data taken from publication doi:10.1101/2022.11.10.515925 (bioRxiv, 2022).

B1: KIF20A 1-665 (dimeric motor construct) (domain or fragment, mouse, UniProt P97329 1-665, looked up)
chain: MSHRILSPPAGLLSDEDVVDSPILESTAADLRSVVRKDLLSDCSVISASLEDKQALLEDTSEKVKVYLRIRPFLTSELDRQEDQGCVCIENTETLVLQAPKDSFALKSNERGVGQATHKFTFSQIFGPEVGQVAFFNLTMKEMVKDVLKGQNWLIYTYGVTNSGKTYTIQGTSKDAGILPQSLALIFNSLQGQLHPTPDLKPLLSNEVIWLDSKQIRQEEMKKLSLLIGGLQEEELSTSVKKRVHTESRIGASNSFDSGVAGLSSTSQFTSSSQLDETSQLWAQPDTVPVSVPADIRFSVWISFFEIYNELLYDLLEPPSHQHKRQTLRLCEDQNGNPYVKDLNWIHVRDVEEAWKLLKVGRKNQSFASTHMNQQSSRSHSIFSIRILHLQGEGDIVPKISELSLCDLAGSERCKHQKSGERLKEAGNINTSLHTLGRCIAALRQNQQNRSKQNLIPFRDSKLTRVFQGFFTGRGRSCMIVNVNPCASTYDETLHAAKFSALASQLVHAPPVHLGIPSLHSFIKKHSPQVGPGLEKEDKADSDLEDSPEDEADVSVYGKEELLQVVEAMKALLLKERQEKLQLEIQLREEICNEMVEQMQQREQWCSERLDNQKELMEELYEEKLKILKESLTTFYQEQIQERDEKIEELETLLQEAKQQPAAQQ
B2: KIF20A 55-665 Δ(518-549) (dimeric motor, shortened neck linker) (domain or fragment, mouse, UniProt P97329 55-665, looked up)
chain: ALLEDTSEKVKVYLRIRPFLTSELDRQEDQGCVCIENTETLVLQAPKDSFALKSNERGVGQATHKFTFSQIFGPEVGQVAFFNLTMKEMVKDVLKGQNWLIYTYGVTNSGKTYTIQGTSKDAGILPQSLALIFNSLQGQLHPTPDLKPLLSNEVIWLDSKQIRQEEMKKLSLLIGGLQEEELSTSVKKRVHTESRIGASNSFDSGVAGLSSTSQFTSSSQLDETSQLWAQPDTVPVSVPADIRFSVWISFFEIYNELLYDLLEPPSHQHKRQTLRLCEDQNGNPYVKDLNWIHVRDVEEAWKLLKVGRKNQSFASTHMNQQSSRSHSIFSIRILHLQGEGDIVPKISELSLCDLAGSERCKHQKSGERLKEAGNINTSLHTLGRCIAALRQNQQNRSKQNLIPFRDSKLTRVFQGFFTGRGRSCMIVNVNPCASTYDETLHAAKFSALASQLVHAPPVHLGIPDEADVSVYGKEELLQVVEAMKALLLKERQEKLQLEIQLREEICNEMVEQMQQREQWCSERLDNQKELMEELYEEKLKILKESLTTFYQEQIQERDEKIEELETLLQEAKQQPAAQQ
B3: KIF20A 25-665 (dimeric motor construct) (domain or fragment, mouse, UniProt P97329 25-665, looked up)
chain: ESTAADLRSVVRKDLLSDCSVISASLEDKQALLEDTSEKVKVYLRIRPFLTSELDRQEDQGCVCIENTETLVLQAPKDSFALKSNERGVGQATHKFTFSQIFGPEVGQVAFFNLTMKEMVKDVLKGQNWLIYTYGVTNSGKTYTIQGTSKDAGILPQSLALIFNSLQGQLHPTPDLKPLLSNEVIWLDSKQIRQEEMKKLSLLIGGLQEEELSTSVKKRVHTESRIGASNSFDSGVAGLSSTSQFTSSSQLDETSQLWAQPDTVPVSVPADIRFSVWISFFEIYNELLYDLLEPPSHQHKRQTLRLCEDQNGNPYVKDLNWIHVRDVEEAWKLLKVGRKNQSFASTHMNQQSSRSHSIFSIRILHLQGEGDIVPKISELSLCDLAGSERCKHQKSGERLKEAGNINTSLHTLGRCIAALRQNQQNRSKQNLIPFRDSKLTRVFQGFFTGRGRSCMIVNVNPCASTYDETLHAAKFSALASQLVHAPPVHLGIPSLHSFIKKHSPQVGPGLEKEDKADSDLEDSPEDEADVSVYGKEELLQVVEAMKALLLKERQEKLQLEIQLREEICNEMVEQMQQREQWCSERLDNQKELMEELYEEKLKILKESLTTFYQEQIQERDEKIEELETLLQEAKQQPAAQQ
B4: KIF20A 55-665 (dimeric motor construct) (domain or fragment, mouse, UniProt P97329 55-665, looked up)
chain: ALLEDTSEKVKVYLRIRPFLTSELDRQEDQGCVCIENTETLVLQAPKDSFALKSNERGVGQATHKFTFSQIFGPEVGQVAFFNLTMKEMVKDVLKGQNWLIYTYGVTNSGKTYTIQGTSKDAGILPQSLALIFNSLQGQLHPTPDLKPLLSNEVIWLDSKQIRQEEMKKLSLLIGGLQEEELSTSVKKRVHTESRIGASNSFDSGVAGLSSTSQFTSSSQLDETSQLWAQPDTVPVSVPADIRFSVWISFFEIYNELLYDLLEPPSHQHKRQTLRLCEDQNGNPYVKDLNWIHVRDVEEAWKLLKVGRKNQSFASTHMNQQSSRSHSIFSIRILHLQGEGDIVPKISELSLCDLAGSERCKHQKSGERLKEAGNINTSLHTLGRCIAALRQNQQNRSKQNLIPFRDSKLTRVFQGFFTGRGRSCMIVNVNPCASTYDETLHAAKFSALASQLVHAPPVHLGIPSLHSFIKKHSPQVGPGLEKEDKADSDLEDSPEDEADVSVYGKEELLQVVEAMKALLLKERQEKLQLEIQLREEICNEMVEQMQQREQWCSERLDNQKELMEELYEEKLKILKESLTTFYQEQIQERDEKIEELETLLQEAKQQPAAQQ
B5: KIF20A 55-665 Δ(535-549) (dimeric motor, shortened neck linker) (domain or fragment, mouse, UniProt P97329 55-665, looked up)
chain: ALLEDTSEKVKVYLRIRPFLTSELDRQEDQGCVCIENTETLVLQAPKDSFALKSNERGVGQATHKFTFSQIFGPEVGQVAFFNLTMKEMVKDVLKGQNWLIYTYGVTNSGKTYTIQGTSKDAGILPQSLALIFNSLQGQLHPTPDLKPLLSNEVIWLDSKQIRQEEMKKLSLLIGGLQEEELSTSVKKRVHTESRIGASNSFDSGVAGLSSTSQFTSSSQLDETSQLWAQPDTVPVSVPADIRFSVWISFFEIYNELLYDLLEPPSHQHKRQTLRLCEDQNGNPYVKDLNWIHVRDVEEAWKLLKVGRKNQSFASTHMNQQSSRSHSIFSIRILHLQGEGDIVPKISELSLCDLAGSERCKHQKSGERLKEAGNINTSLHTLGRCIAALRQNQQNRSKQNLIPFRDSKLTRVFQGFFTGRGRSCMIVNVNPCASTYDETLHAAKFSALASQLVHAPPVHLGIPSLHSFIKKHSPQVGPGLDEADVSVYGKEELLQVVEAMKALLLKERQEKLQLEIQLREEICNEMVEQMQQREQWCSERLDNQKELMEELYEEKLKILKESLTTFYQEQIQERDEKIEELETLLQEAKQQPAAQQ

Target: the molecule itself
Test: SEC-MALS

Stoichiometry N, 2:
B1
B2
B3
B4
B5
